The supplement of paper PMC11780869

System: Bacillus subtilis
Test: cleaved RNA product abundance (RNA/gDNA barcode ratio) relative to median wild-type variant (ratio to wild type); higher = more accumulation of the downstream cleavage product
Procedure, shortened: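 Cleaved product abundance is expressed as the RNA:gDNA barcode ratio per construct, scaled to the median construct carrying the unmutated site. The constructs were barcoded, mutagenized RNase Y cleavage-site windows in truncated aprE or tetM reporter mRNAs integrated into the B. subtilis chromosome. Cultures grew in LB at 37°C from OD600 0.0003 to 0.3 before cleaved RNA was gel-selected and barcode-sequenced.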

[1] = experiment (reporter, strain, medium): exp 4a: truncated aprE reporter, strain BJT201 with 2% xylose (RNase J1 expressed), cleavage site: cggR-gapA (positions -7 to +36 mutated)
[2] = experiment (reporter, strain, medium): exp 2b: truncated aprE reporter, strain BJT200, cleavage site: cggR-gapA (positions -7 to +36 mutated)
[3] = experiment (reporter, strain, medium): exp 6: tetM reporter, strain 168, cleavage site: cggR-gapA (positions -7 to +36 mutated)
[4] = experiment (reporter, strain, medium): exp 8a: truncated aprE reporter, strain BJT201 with 2% xylose (RNase J1 expressed), cleavage site: glnRA (positions -5 to +31 mutated)

Sequence: ACAGACGAAGGAGCCGCAAAGAAGTTATCAAGGGATGAATAATCCCTAAATATAAATATCTCTCACTTATTTAAA
- cleaved RNA product abundance [1]: 0.333

Sequence: ACAGACGAAGGAGCCGCAAAGAAGTTATTAAGGGCTGAATAAACCCTCAATATAAATATCTCTCACTTATTTAAA
- cleaved RNA product abundance [1]: 0.47

Sequence: ACAGACGAAGGAGCCGCAAAGAAGTTATTAAGCGCTGAATAATCCCTCAATATAAATATCTCTCACTTATTTAAA
- cleaved RNA product abundance [2]: 0.0756
- cleaved RNA product abundance [1]: 0.0581

Sequence: ACAGACGAAGGAGCCGCAAAGCAGTTATTAAGGGAAGAATAATCCCTCAATATAAATATCTCTCACTTATTTAAA
- cleaved RNA product abundance [1]: 0.561

Sequence: ACAGACGAAGGAGCCGCAAAGAAGTTATTAAGGGATGAATAATCCCTCAATATTAATATCTCTCACTTATTTAAA
- cleaved RNA product abundance [2]: 0.169
- cleaved RNA product abundance [1]: 0.113
- cleaved RNA product abundance [3]: 0.249

Sequence: CGACATGTCCCGCTTCTTTCATTAATCCGTTAGCAACTGTTTTGCCAGATACATTTACCTTTTAAGAGGAGGAAT
- cleaved RNA product abundance [4]: 0.286

Sequence: ACAGACGAAGGAGCCGCAAAGAAGTTATTAAGGGAAGAATAATCCCTAAATATAAAAATCTCTCACTTATTTAAA
- cleaved RNA product abundance [1]: 0.415

Sequence: ACAGACGAAGGAGCCGCAAACAAGTTATTAAGGGATGAATAATCCCTCATTATAAATATCTCTCACTTATTTAAA
- cleaved RNA product abundance [1]: 0.337

Sequence: CGACATGTCCCGCTTCTTTCATTAATCCGTTAGCAACTGTTTTGCTATATACATATACATTTTAAGAGGAGGAAT
- cleaved RNA product abundance [4]: 0.68

Sequence: ACAGACGAAGGAGCCGCAAAGAAGTCATTAAGGGATGAATAATCCCTCAATATAAATAACTCTCACTTATTTAAA
- cleaved RNA product abundance [1]: 0.249

Sequence: ACAGACGAAGGAGCCGCAAATAAGTTATTTAGGGATGAATAATCCCTCAATATAAATATCTCTCACTTATTTAAA
- cleaved RNA product abundance [2]: 0.993
- cleaved RNA product abundance [1]: 0.766

Sequence: CGACATGTCCCGCTTCTTTCATTAATCCGTTAGAAAGTGTTTTGCTATATACATTTACCTTTTAAGAGGAGGAAT
- cleaved RNA product abundance [4]: 0.368

Sequence: ACAGACGAAGGAGCCGCAAAGAAGTAATTAAGGGATGAATAATCCCTCCATATAAATATCTCTCACTTATTTAAA
- cleaved RNA product abundance [1]: 0.0749

Sequence: ACAGACGAAGGAGCCGCAAAGAAGTTATTAACGGATGAATAATCCCTGAATATAAATATCTCTCACTTATTTAAA
- cleaved RNA product abundance [1]: 0.107

Sequence: ACAGACGAAGGAGCCGCAAAGAAGTTATTAAGAGATGAATATTCCCTCAATATAAATATCTCTCACTTATTTAAA
- cleaved RNA product abundance [1]: 0.0954

Sequence: ACAGACGAAGGAGCCGCAAAGAAGTTTTTAAGGGATAAATAATCCCTCAATATAAATATCTCTCACTTATTTAAA
- cleaved RNA product abundance [1]: 0.214

Sequence: ACAGACGAAGGAGCCGCAAAAAAGTTATTAAGGGATGAATAATCCCTCAATATAGATATCTCTCACTTATTTAAA
- cleaved RNA product abundance [2]: 0.991
- cleaved RNA product abundance [1]: 0.644

Sequence: ACAGACGAAGGAGCCGCAATGAAGTTATTAAGGGATGAATAATCACTCAATATAAATATCTCTCACTTATTTAAA
- cleaved RNA product abundance [2]: 0.126
- cleaved RNA product abundance [1]: 0.129

Sequence: CGACATGTCCCGCTTCTTTCATTAACCCGTTAGCAACTGTTTTGCTATATACATTTACCATTTAAGAGGAGGAAT
- cleaved RNA product abundance [4]: 1.41

Sequence: CGACATGTCCCGCTTCTTTCATTAATCCGTTAGCAACTGTTTTGCTATTTACATGTACCTTTTAAGAGGAGGAAT
- cleaved RNA product abundance [4]: 0.0435

Sequence: ACAGACGAAGGAGCCGCAAAGATGTTATTAAGGGATGAATAATGCCTCAATATAAATATCTCTCACTTATTTAAA
- cleaved RNA product abundance [1]: 0.186

Sequence: ACAGACGAAGGAGCCGCAAAGAAGTTATTTAGCGATGAATAATCCCTCAATATAAATATCTCTCACTTATTTAAA
- cleaved RNA product abundance [2]: 0.117
- cleaved RNA product abundance [1]: 0.0809

Sequence: CGACATGTCCCGCTTCTTTCATTAATCCGTTAGCAACTGTTTTGATATATATATTTACCTTTTAAGAGGAGGAAT
- cleaved RNA product abundance [4]: 0.766

Sequence: CGACATGTCCCGCTTCTTTCATTAATCCGTTAGCAACAATTTTGCTATATACATTTACCTTTTAAGAGGAGGAAT
- cleaved RNA product abundance [4]: 1.04

Sequence: ACAGACGAAGGAGCCGCAAAAAAGTTTTTAAGGGATGAATAATCCCTCAATATAAATATCTCTCACTTATTTAAA
- cleaved RNA product abundance [2]: 0.281
- cleaved RNA product abundance [1]: 0.435

Sequence: CGACATGTCCCGCTTCTTTCATTAATCCGTTACCAACTGTTTTGCAATATACATTTACCTTTTAAGAGGAGGAAT
- cleaved RNA product abundance [4]: 0.26

Sequence: ACAGACGAAGGAGCCGCAAAAAAATTATAAAGGGATGAATAATCCCTCAATATAAATATCTCTCACTTATTTAAA
- cleaved RNA product abundance [1]: 0.268

Sequence: ACAGACGAAGGAGCCGCAAAGAAGTTACTAAGGGATGAATACTCCCTCAATATAAATATCTCTCACTTATTTAAA
- cleaved RNA product abundance [2]: 0.107

Sequence: ACAGACGAAGGAGCCGCAAACAAGTTATTAAGGGATGAATAATCCCTCAATATTAATATCTCTCACTTATTTAAA
- cleaved RNA product abundance [2]: 0.12

Sequence: CGACATGTCCCGCTTCTTTCATTACTCCGTTAGCAAATGTTTTGCTATATACATTTACCTTTTAAGAGGAGGAAT
- cleaved RNA product abundance [4]: 1.14

Sequence: ACAGACGAAGGAGCCGCAAAGAAGTTATTAAGGGATGAATAATTCCTCCATATAAATATCTCTCACTTATTTAAA
- cleaved RNA product abundance [2]: 0.102
- cleaved RNA product abundance [1]: 0.119

Sequence: ACAGACGAAGGAGCCGCAAAGAAGTTATTAAGGGATGAATAATCCCTCAATATAAATATCTCTCACTATTTAAAG
- cleaved RNA product abundance [2]: 1.28
- cleaved RNA product abundance [1]: 1.23

Sequence: CGACATGTCCCGCTTCTTTCATTAATCCGTTATCAACTGTTTTGCTAAATACATTTACCTTTTAAGAGGAGGAAT
- cleaved RNA product abundance [4]: 0.237

Sequence: CGACATGTCCCGCTTCTTTCATTACTCCGTTAGCAACTGTTTTGCTATATACATTTGCCTTTTAAGAGGAGGAAT
- cleaved RNA product abundance [4]: 0.366

Sequence: ACAGACGAAGGAGCCGCAAAGAAGTTATTATTGGATGAATAATCCCTCAATATAAATATCTCTCACTTATTTAAA
- cleaved RNA product abundance [1]: 0.149

Sequence: ACAGACGAAGGAGCCGCAAAGAAGTAATTAAGGGATGAATAATCCCTCAATATAAACATCTCTCACTTATTTAAA
- cleaved RNA product abundance [1]: 0.264

Sequence: ACAGACGAAGGAGCCGCAAAGAAGTTTATAAGGGATGAATAATCCCTCAATATAAATATCTCTCACTTATTTAAA
- cleaved RNA product abundance [1]: 0.438

Sequence: CGACATGTCCCGCTTCTTTCATTAATCCGTTGGCAACTGTTTTGCTATATACATTTACCTTTTAAGAGGAGGAAT
- cleaved RNA product abundance [4]: 0.739

Sequence: CGACATGTCCCGCTTCTTTCATTAATCCGTAAGCAACTGTTTTGCTATATACATTTACCTTTTAAGAGGAGGAAT
- cleaved RNA product abundance [4]: 0.434

Sequence: CGACATGTCCCGCTTCTTTCATTAATCCGTTAGCAACTGTTTAGCTATATACATTAACCTTTTAAGAGGAGGAAT
- cleaved RNA product abundance [4]: 0.618

Sequence: CGACATGTCCCGCTTCTTTCATTAATCCGTTAGCAACAGTTTTGCTATATATATTTACCTTTTAAGAGGAGGAAT
- cleaved RNA product abundance [4]: 0.588

Sequence: CGACATGTCCCGCTTCTTTCATTAATCCATTAGCAACTGTATTGCTATATACATTTACCTTTTAAGAGGAGGAAT
- cleaved RNA product abundance [4]: 0.279

Sequence: CGACATGTCCCGCTTCTTTCATTAATCCGGTAGCAACTGTTTTGATATATACATTTACCTTTTAAGAGGAGGAAT
- cleaved RNA product abundance [4]: 0.316

Sequence: ACAGACGAAGGAGCCGCAAACAAGTTATTAAGGGATGAATAATCCCTCAATATACATATCTCTCACTTATTTAAA
- cleaved RNA product abundance [2]: 0.644
- cleaved RNA product abundance [1]: 0.536

Sequence: ACAGACGAAGGAGCCGCAAAGAACTTATTAAGGGATGAATCATCCCTCAATATAAATATCTCTCACTTATTTAAA
- cleaved RNA product abundance [1]: 0.36

Sequence: CGACATGTCCCGCTTCTTTCATTAATCCGACAGCAACTGTTTTGCTATATACATTTACCTTTTAAGAGGAGGAAT
- cleaved RNA product abundance [4]: 0.335

Sequence: ACAGACGAAGGAGCCGCAAAGAAGTTAATAAGGGATGTATAATCCCTCAATATAAATATCTCTCACTTATTTAAA
- cleaved RNA product abundance [1]: 0.322

Sequence: ACAGACGAAGGAGCCGCAAAGAAGTTATTAAGGGATGAACAATCCTTCAATATAAATATCTCTCACTTATTTAAA
- cleaved RNA product abundance [1]: 0.58

Sequence: CGACATGTCCCGCTTCTTTCATTACTCCGTTAGCAACTGTTTTGCTATATACATCTACCTTTTAAGAGGAGGAAT
- cleaved RNA product abundance [4]: 0.75

Sequence: CGACATGTCCCGCTTCTTTCATTAATCCGTTAGCAACTGTTTTTCTATAAACATTTACCTTTTAAGAGGAGGAAT
- cleaved RNA product abundance [4]: 0.459

Sequence: ACAGACGAAGGAGCCGCAAAGAAGTTATTAAGGGATCAATAATCCCTCAATATAAATTTCTCTCACTTATTTAAA
- cleaved RNA product abundance [1]: 0.645

Sequence: ACAGACGAAGGAGCCGCAAAGAAGTTACTAATGGATGAATAATCCCTCAATATAAATATCTCTCACTTATTTAAA
- cleaved RNA product abundance [2]: 0.112
- cleaved RNA product abundance [1]: 0.172

Sequence: ACAGACGAAGGAGCCGCAAAGAAGTTGTTAAGGGATGAATAATCCCTCAAAATAAATATCTCTCACTTATTTAAA
- cleaved RNA product abundance [1]: 0.316

Sequence: ACAGACGAAGGAGCCGCAAAGAAGTTATTAAGGGATGAATAATCCCTTTATATAAATATCTCTCACTTATTTAAA
- cleaved RNA product abundance [2]: 1.14
- cleaved RNA product abundance [1]: 0.977

Sequence: ACAGACGAAGGAGCCGCAAAGAAGTTATTAAGGGATGAATAATCCCTCAATATAATTATCTCTCACTTATTTAAA
- cleaved RNA product abundance [2]: 0.673
- cleaved RNA product abundance [1]: 0.491
- cleaved RNA product abundance [3]: 0.338

Sequence: CGACATGTCCCGCTTCTTTCATTAATCCGTTAGCAACCGTTTTGCTATATACATTTACCTTTTAAGAGGAGGAAT
- cleaved RNA product abundance [4]: 0.617

Sequence: ACAGACGAAGGAGCCGCAAAGACGTTATTAATGGATGAATAATCCCTCAATATAAATATCTCTCACTTATTTAAA
- cleaved RNA product abundance [2]: 0.115
- cleaved RNA product abundance [1]: 0.115

Sequence: ACAGACGAAGGAGCCGCAAAGAAGTTAATAAGGGATGAATAATCCCTCAATATAAAAATCTCTCACTTATTTAAA
- cleaved RNA product abundance [1]: 0.278

Sequence: ACAGACGAAGGAGCCGCAAAGAAGTTATTAAGGGATGAATAATCCCTCAATAGAAATACCTCTCACTTATTTAAA
- cleaved RNA product abundance [1]: 0.0433

Sequence: CGACATGTCCCGCTTCTTTCATTAATCCGTTAGCAACTGTTTTTCTCTATACATTTACCTTTTAAGAGGAGGAAT
- cleaved RNA product abundance [4]: 0.337

Sequence: CGACATGTCCCGCTTCTTTCATTAATCCGTTAGCAACTATTTTACTATATACATTTACCTTTTAAGAGGAGGAAT
- cleaved RNA product abundance [4]: 0.726
